The labels stand for the following.
T1: EsCas13d, nuclease-dead (Eubacterium siraeum, UniProt B0MS50, R295A;H300A;R849A;H854A)
T1 sequence: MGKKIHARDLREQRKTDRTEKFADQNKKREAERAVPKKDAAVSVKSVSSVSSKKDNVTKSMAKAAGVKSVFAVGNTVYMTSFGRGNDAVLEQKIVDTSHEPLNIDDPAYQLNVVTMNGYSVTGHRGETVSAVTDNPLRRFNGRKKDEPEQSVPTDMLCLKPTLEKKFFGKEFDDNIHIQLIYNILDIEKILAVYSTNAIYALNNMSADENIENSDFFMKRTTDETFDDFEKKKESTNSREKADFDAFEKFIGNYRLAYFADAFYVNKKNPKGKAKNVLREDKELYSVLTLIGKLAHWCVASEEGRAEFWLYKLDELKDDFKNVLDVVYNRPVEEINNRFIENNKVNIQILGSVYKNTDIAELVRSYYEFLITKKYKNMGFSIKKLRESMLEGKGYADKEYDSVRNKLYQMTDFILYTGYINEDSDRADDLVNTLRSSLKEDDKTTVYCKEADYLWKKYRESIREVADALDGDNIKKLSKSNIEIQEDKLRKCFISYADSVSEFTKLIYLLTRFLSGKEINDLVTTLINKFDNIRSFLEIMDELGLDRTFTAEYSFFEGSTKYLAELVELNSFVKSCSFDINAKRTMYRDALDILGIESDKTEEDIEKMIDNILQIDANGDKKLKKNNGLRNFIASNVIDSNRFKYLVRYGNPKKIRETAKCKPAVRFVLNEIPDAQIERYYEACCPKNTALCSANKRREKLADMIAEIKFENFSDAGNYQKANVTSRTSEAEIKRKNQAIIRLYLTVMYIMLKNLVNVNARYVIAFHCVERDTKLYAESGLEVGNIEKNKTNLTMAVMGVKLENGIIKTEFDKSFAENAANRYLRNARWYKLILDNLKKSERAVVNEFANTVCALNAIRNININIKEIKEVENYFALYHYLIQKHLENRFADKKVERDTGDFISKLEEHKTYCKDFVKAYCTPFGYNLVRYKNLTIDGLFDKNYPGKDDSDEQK

B1: target 1 C4U,G5C (mixed)
RNA 1: CACCCGUGCAAAAAUGCAGGGGUCUAAAACUGAGCGGAUAACCUCUCUAUGG
RNA 2: GGGAAUGGAUCCACAUCUACGAAUUCGUACCAUAGAGAGGUUAUCCCUUCACCGAGAUCGGAAGAGCACACGU
B2: target 1 insA 3' of 22,insA 3' of 5 (mixed)
RNA 1: B1 RNA 1
RNA 2: GGGAAUGGAUCCACAUCUACGAAUUCGUACACAUAGAGAGGUUAUCCGACUCACCGAGAUCGGAAGAGCACACGU
B3: target 1 C7U,A9C (mixed)
RNA 1: B1 RNA 1
RNA 2: B1 RNA 2 with A43C, C45U, C47G, U48C
B4: target 1 del13,del15 (mixed)
RNA 1: B1 RNA 1
RNA 2: GGGAAUGGAUCCACAUCUACGAAUUCGUACCAUAGAAGUUAUCCGCUCACCGAGAUCGGAAGAGCACACGU
B5: target 1 C7G,G12A (mixed)
RNA 1: B1 RNA 1
RNA 2: B1 RNA 2 with G40A, C45G, C47G, U48C
B6: target 1 U3C,G12U (mixed)
RNA 1: B1 RNA 1
RNA 2: B1 RNA 2 with G40U, C47G, U48C, U49C
B7: target 1 insG 3' of 16,insU 3' of 2 (mixed)
RNA 1: B1 RNA 1
RNA 2: GGGAAUGGAUCCACAUCUACGAAUUCGUACCAUAGAGGAGGUUAUCCGCUCUACCGAGAUCGGAAGAGCACACGU
B8: target 1 insC 3' of 13,insU 3' of 2 (mixed)
RNA 1: B1 RNA 1
RNA 2: B7 RNA 2 with G38A, A39G, G40C
B9: target 1 insA 3' of 4,insG 3' of 2 (mixed)
RNA 1: B1 RNA 1
RNA 2: GGGAAUGGAUCCACAUCUACGAAUUCGUACCAUAGAGAGGUUAUCCGCAUCGACCGAGAUCGGAAGAGCACACGU
B10: target 1 insU 3' of 18,insA 3' of 15 (mixed)
RNA 1: B1 RNA 1
RNA 2: GGGAAUGGAUCCACAUCUACGAAUUCGUACCAUAUGAGAAGGUUAUCCGCUCACCGAGAUCGGAAGAGCACACGU
B11: target 1 insG 3' of 16,insC 3' of 10 (mixed)
RNA 1: B1 RNA 1
RNA 2: B10 RNA 2 with U35G, G36A, A37G, A40G, G42U, U44C
B12: target 1 insU 3' of 20,insC 3' of 5 (mixed)
RNA 1: B1 RNA 1
RNA 2: B2 RNA 2 with A31C, C32A, A33U, A49C
B13: target 1 U3G,U10G (mixed)
RNA 1: B1 RNA 1
RNA 2: B1 RNA 2 with U42G, C47G, U48C, U49G
B14: target 1 insC 3' of 3,insU 3' of 2 (mixed)
RNA 1: B1 RNA 1
RNA 2: B9 RNA 2 with A49U, U50C, G52U
B15: target 1 insU 3' of 22,insA 3' of 10 (mixed)
RNA 1: B1 RNA 1
RNA 2: B2 RNA 2 with A31U, U45A, C46U, G48C, A49G
B16: target 1 C6A,U8A (mixed)
RNA 1: B1 RNA 1
RNA 2: B1 RNA 2 with U44A, C46A, C47G, U48C
B17: target 1 U8A,U10G (mixed)
RNA 1: B1 RNA 1
RNA 2: B1 RNA 2 with U42G, U44A, C47G, U48C
B18: target 1 U8A,U10A (mixed)
RNA 1: B1 RNA 1
RNA 2: B1 RNA 2 with U42A, U44A, C47G, U48C
B19: target 1 insA 3' of 15,insC 3' of 15 (mixed)
RNA 1: B1 RNA 1
RNA 2: B10 RNA 2 with U35G, G36A, A37G, G38A, A39C
B20: target 1 G5U,G17U (mixed)
RNA 1: B1 RNA 1
RNA 2: B1 RNA 2 with G35U, C47U, U48C
B21: target 1 insA 3' of 21,insG 3' of 7 (mixed)
RNA 1: B1 RNA 1
RNA 2: B2 RNA 2 with A31C, C32A, C47G, G48C, A49G
B22: target 1 A9U,G12C (mixed)
RNA 1: B1 RNA 1
RNA 2: B1 RNA 2 with G40C, A43U, C47G, U48C
B23: target 1 C4U,G5A (mixed)
RNA 1: B1 RNA 1
RNA 2: B1 RNA 2 with C47A
B24: target 1 insG 3' of 16,insG 3' of 14 (mixed)
RNA 1: B1 RNA 1
RNA 2: B10 RNA 2 with U35G, G36A, A37G, A40G
B25: target 1 U19G,C21U (mixed)
RNA 1: B1 RNA 1
RNA 2: B1 RNA 2 with C31U, U33G, C47G, U48C
B26: target 1 insA 3' of 22,insG 3' of 21 (mixed)
RNA 1: B1 RNA 1
RNA 2: B10 RNA 2 with C31A, A32C, U33G, G36A, A37G, G38A, A39G
B27: target 1 insC 3' of 19,insG 3' of 3 (mixed)
RNA 1: B1 RNA 1
RNA 2: B7 RNA 2 with A34C, G35A, A36G, G37A, C51G, U52C
B28: target 1 insC 3' of 17,insG 3' of 9 (mixed)
RNA 1: B1 RNA 1
RNA 2: B10 RNA 2 with U35G, G36C, A40G, G42U, U44A, A45G
B29: target 1 G5U,G15C (mixed)
RNA 1: B1 RNA 1
RNA 2: B1 RNA 2 with G37C, C47U, U48C
B30: target 1 A16G,U19C (mixed)
RNA 1: B1 RNA 1
RNA 2: B1 RNA 2 with U33C, A36G, C47G, U48C
B31: target 1 C4G,G15U (mixed)
RNA 1: B1 RNA 1
RNA 2: B1 RNA 2 with G37U, C47G, U48G
B32: target 1 U19C,C22G (mixed)
RNA 1: B1 RNA 1
RNA 2: B1 RNA 2 with C30G, U33C, C47G, U48C
B33: target 1 G5A,G17C (mixed)
RNA 1: B1 RNA 1
RNA 2: B1 RNA 2 with G35C, C47A, U48C

Where a chain is given by its changes, count along the chain named. Names and notes keep the numbering of the source.

In this series the target is T1, EsCas13d, nuclease-dead. Kind of series: crRNA (strand 1, pre-loaded); Mg2+; 40 mM Tris-HCl pH 7.5, 150 mM NaCl, 6 mM MgCl2, 1 mM DTT, 0.1% Tween-20, 0.2 mg/ml BSA; 25 C; 10 min per concentration, then washed. The following applies: tags: His6-TwinStrep-SUMO cleaved; N-terminal SNAP kept (SNAP-Surface 488); label: 3' end held by stalled T7 RNA polymerase.
In turn, B1 yielded a Kd of 39 ± 4 nM. B2 returned a Kd of 7.2 ± 0.6 nM.

For B3, the Kd came to 8.9 ± 0.4 nM. Then B4, with 30 ± 5 nM. Then B5, with 15.4 ± 1.3 nM; and B6, with 19.4 ± 1.4 nM; and B7, with 15.1 ± 1.3 nM. With B8 the figure was 14.4 ± 1.3 nM. Take B9: the Kd amounted to 7.7 ± 0.6 nM.

In the case of B10, the Kd amounted to 20.5 ± 2.5 nM. With B11 the figure was 40 ± 9 nM. With B12 the figure was 36 ± 10 nM; with B13, 35.2 ± 2.9 nM. As to B14, the Kd stood at 37 ± 5 nM. The molecule B15 registered a Kd of 43 ± 5 nM. With B16 the figure was 14.4 ± 0.4 nM.

In turn, B17 returned a Kd of 18.2 ± 0.8 nM. Take B18: the Kd came out at 12.5 ± 0.7 nM. For the molecule B19, the Kd stood at 20.4 ± 1.6 nM. Then B20, with 62 ± 8 nM; and B21, with 14.9 ± 0.6 nM; and B22, with approximately 46 nM. With B23 the figure was 14.2 ± 1.5 nM; with B24, 15.6 ± 1.3 nM; with B25, 11.1 ± 1.3 nM. Then B26, with 43 ± 6 nM; and B27, with 26 ± 1.4 nM.

For the molecule B28, the Kd was determined as 35 ± 6 nM. Then B29, with 46 ± 9 nM; and B30, with 78 ± 33 nM; and B31, with 22 ± 8 nM. Then B32, with approximately 80 nM; and B33, with 80 ± 21 nM.

The values are drawn from paper PMC10786891, “Massively parallel profiling of RNA-targeting CRISPR-Cas13d”.
